The values below come from US20140087995A1 (published 2014).

The target in assay [1] is T1, human calcitonin receptor (human, UniProt P30988 25-474).
T1 construct: whole, on cells; Assay used cell membranes, not intact cells; also called hCTR; hCT
T1 sequence (looked up): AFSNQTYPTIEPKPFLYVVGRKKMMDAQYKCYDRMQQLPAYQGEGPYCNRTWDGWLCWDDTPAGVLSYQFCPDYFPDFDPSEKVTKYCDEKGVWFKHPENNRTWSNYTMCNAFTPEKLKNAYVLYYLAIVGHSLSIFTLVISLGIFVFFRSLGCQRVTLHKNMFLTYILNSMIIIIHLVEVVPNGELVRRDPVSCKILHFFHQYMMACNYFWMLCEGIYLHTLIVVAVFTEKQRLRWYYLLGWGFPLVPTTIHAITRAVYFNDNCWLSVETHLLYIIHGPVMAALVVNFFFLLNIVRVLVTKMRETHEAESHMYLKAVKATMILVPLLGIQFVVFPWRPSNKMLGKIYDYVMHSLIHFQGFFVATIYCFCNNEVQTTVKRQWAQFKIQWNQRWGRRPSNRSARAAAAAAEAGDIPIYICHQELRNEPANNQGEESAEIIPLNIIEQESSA
Description: ratio IC50 hCTR / IC50 hAmylin-R (reference: human amylin receptor), SPA competition assays. How it is done: The resulting pellet was resuspended, homogenized and centrifuged (20.000 rpm, 15 min) in a buffer containing 20 mM Na-HEPES and 0.1 mM EDTA (pH 7.4, buffer 2). The resulting pellet was resuspended in buffer 2 and protein concentration was measured (BCA protein Assay, Pierce). The homogenate was kept cold during the whole procedure. The membranes were kept at −80° C. until use. The assay was performed in a 384 well Optiplate (PerkinElmer) in a total volume of 40 ul. Membranes were mixed with SPA beads. Final concentration of membranes 35 ng/μL final and SPA beads was 0.05 mg/well. Test-compounds were dissolved in DMSO and further diluted in assay buffer (50 mM Hepes, pH 7.4, 1 mM CaCl2, 5 mM MgCl₂, 0.1% OA and 0.02% Tween20). […] The final mixture was incubated with shaking at 400 rpm for 120 min at 25° C. prior to centrifugation (1500 rpm, 10 min). Samples were analyzed on TopCounter™ (Packard). The IC₅₀ was calculated using (one site binding competition analysis) GraphPad Prism5 as a measure of receptor affinity.
Membranes were prepared in the following way; the cells were rinsed with PBS and incubated with Versene for approximately 5 min before harvesting. The cells were flushed with PBS and the cell-suspension was centrifuged for 5 min at 1000 rpm. Cells were homogenized (Ultrathurrax) in a buffer containing 20 mM Na-HEPES and 10 mM EDTA (pH 7.4) and centrifuged at 20.000 rpm for 15 min. The resulting pellet was resuspended, homogenized and centrifuged (20.000 rpm, 15 min) in a buffer containing 20 mM Na-HEPES and 0.1 mM EDTA (pH 7.4, buffer 2). The resulting pellet was resuspended in buffer 2 and protein concentration was measured (BCA protein Assay, Pierce). The homogenate was kept cold during the whole procedure. The membranes were kept at −80° C. until use. Assay was performed in a 384 well Optiplate (PerkinElmer) in a total volume of 40 ul. Membranes were mixed with SPA beads.

The target in assay [2] is T1, human calcitonin receptor. Nature of the assay: SPA competition with 125I-calcitonin on membranes of BHK cells with human calcitonin receptor (Assay VII). How it is done:
Membranes were prepared in the following way; the cells were rinsed with PBS and incubated with Versene for approximately 5 min before harvesting. The cells were flushed with PBS and the cell-suspension was centrifuged for 5 min at 1000 rpm. Cells were homogenized (Ultrathurrax) in a buffer containing 20 mM Na-HEPES and 10 mM EDTA (pH 7.4) and centrifuged at 20.000 rpm for 15 min. The resulting pellet was resuspended, homogenized and centrifuged (20.000 rpm, 15 min) in a buffer containing 20 mM Na-HEPES and 0.1 mM EDTA (pH 7.4, buffer 2). The resulting pellet was resuspended in buffer 2 and protein concentration was measured (BCA protein Assay, Pierce). The homogenate was kept cold during the whole procedure. The membranes were kept at −80° C. until use. Assay was performed in a 384 well Optiplate (PerkinElmer) in a total volume of 40 ul. Membranes were mixed with SPA beads. Final concentration of membranes 35 ng/μL final and Final concentration of SPA beads was 0.05 mg/well. Test-compounds were dissolved in DMSO and further diluted in assay buffer (50 mM Hepes, pH 7.4, 1 mM CaCl2, 5 mM MgCl₂, 0.1% OA and 0.02% Tween20). […] The final mixture was incubated for 120 min with shaking at 400 rpm at 25° C. prior to centrifugation (1500 rpm, 10 min). Samples were analyzed on TopCounter™ (Packard). The […] was calculated using (one site binding competition analysis) GraphPad Prism5 as a measure of receptor affinity.

The target of assay [3] is T2, human amylin receptor (amylin 3(a) receptor: human calcitonin receptor with RAMP-3) (human, UniProt P30988 25-474; O60896 24-148).
T2 construct: whole, on cells; Assay used cell membranes of the Amylin 3(a)/CRE-luc BHK cells, not intact cells; also called hAmylin-R; hAmylinR
T2 sequence (looked up) 1: T1 sequence (looked up)
T2 sequence (looked up) 2: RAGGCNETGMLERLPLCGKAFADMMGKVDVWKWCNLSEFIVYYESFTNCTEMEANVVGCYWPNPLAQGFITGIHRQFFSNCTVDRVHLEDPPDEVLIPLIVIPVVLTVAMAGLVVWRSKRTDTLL
Nature of the assay: SPA competition with 125I-rat amylin on membranes of BHK cells with human calcitonin receptor and RAMP-3 (Assay V). On the procedure:
The binding assay was performed using scintillation proximity assay (SPA) beads (RPNQ0001) from PerkinElmer and cell membranes from the Amylin 3(a)/CRE-luc cells (as described in Assay (II)) were used. Membranes were prepared in the following way; the cells were rinsed with PBS and incubated with Versene for approximately 5 min before harvesting. The cells were flushed with PBS and the cell-suspension was centrifuged for 5 min at 1000 rpm. Cells were homogenized (ultrathurrax) in a buffer containing 20 mM Na-HEPES and 10 mM EDTA (pH 7.4) and centrifuged at 20.000 rpm for 15 min. The resulting pellet was resuspended, homogenized and centrifuged (20.000 rpm, 15 min) in a buffer containing 20 mM Na-HEPES and 0.1 mM EDTA (pH 7.4, buffer 2). The resulting pellet was resuspended in buffer 2 and protein concentration was measured (BCA protein Assay, Pierce). The homogenate was kept cold during the whole procedure. The membranes were kept at −80° C. until use. The assay was performed in a 384 well Optiplate (PerkinElmer) in a total volume of 40 ul. Membranes were mixed with SPA beads. Final concentration of membranes 35 ng/μL final and SPA beads was 0.05 mg/well. Test-compounds were dissolved in DMSO and further diluted in assay buffer (50 mM Hepes, pH 7.4, 1 mM CaCl2, 5 mM MgCl₂, 0.1% OA and 0.02% Tween20). […] The final mixture was incubated with shaking at 400 rpm for 120 min at 25° C. prior to centrifugation (1500 rpm, 10 min). Samples were analyzed on TopCounter™ (Packard). The IC₅₀ was calculated using (one site binding competition analysis) GraphPad Prism5 as a measure of receptor affinity.

Numbered stars: 1 amine (or outer) side, 2 acyl side, 3 side chain; on linkers, the order of the positions; unused ones are H or OH. Bridge positions count the residues as written; N and C are the ends. Side chains are listed from the residue outwards. Ends that are not written are not given here. * marks the point of attachment. C20 diacid = O=C(O)CCCCCCCCCCCCCCCCCCC(=O)*; γGlu = O=C(O)[C@H](CCC(=O)[*:2])N[*:1]; AEEA = NCCOCCOCC(=O)O

B1: N^ε1-[2-[2-[2-(19-carboxynonadecanoylamino)ethoxy]ethoxy]acetyl]-[His14,Arg17,Pro21,Pro27]-h-amylin (peptide)
peptide: K([AEEA-C20 diacid])CNTATCATQRLAHFLRHSSPNFGAIPSSTNVGSNTY-NH2
modifications: disulfide 2-7; N-terminus assumed
SMILES: CC[C@H](C)[C@H](NC(=O)[C@H](C)NC(=O)CNC(=O)[C@H](Cc1ccccc1)NC(=O)[C@H](CC(N)=O)NC(=O)[C@@H]1CCCN1C(=O)[C@H](CO)NC(=O)[C@H](CO)NC(=O)[C@H](Cc1c[nH]cn1)NC(=O)[C@H](CCCNC(=N)N)NC(=O)[C@H](CC(C)C)NC(=O)[C@H](Cc1ccccc1)NC(=O)[C@H](Cc1c[nH]cn1)NC(=O)[C@H](C)NC(=O)[C@H](CC(C)C)NC(=O)[C@H](CCCNC(=N)N)NC(=O)[C@H](CCC(N)=O)NC(=O)[C@@H](NC(=O)[C@H](C)NC(=O)[C@@H]1CSSC[C@H](NC(=O)[C@@H](N)CCCCNC(=O)COCCOCCNC(=O)CCCCCCCCCCCCCCCCCCC(=O)O)C(=O)N[C@@H](CC(N)=O)C(=O)N[C@@H]([C@@H](C)O)C(=O)N[C@@H](C)C(=O)N[C@@H]([C@@H](C)O)C(=O)N1)[C@@H](C)O)C(=O)N1CCC[C@H]1C(=O)N[C@@H](CO)C(=O)N[C@@H](CO)C(=O)N[C@H](C(=O)N[C@@H](CC(N)=O)C(=O)N[C@H](C(=O)NCC(=O)N[C@@H](CO)C(=O)N[C@@H](CC(N)=O)C(=O)N[C@H](C(=O)N[C@@H](Cc1ccc(O)cc1)C(N)=O)[C@@H](C)O)C(C)C)[C@@H](C)O
notes: also called compound 90
Take B1: the “Ratio hCT/hAmylin binding” value in assay [1] worked out at 42.2. In addition, the values for the half-maximal inhibitory concentration (IC50) in assay [2] and in assay [3] were 2.57 nM and 0.061 nM, respectively.

B2: N^ε1-[2-[2-[2-[[2-[2-[2-[[(4S)-4-carboxy-4-(19-carboxynonadecanoylamino)butanoyl]amino]ethoxy]ethoxy]acetyl]amino]ethoxy]ethoxy]acetyl]-[Arg17,Pro21,Pro27,Arg34 … (peptide)
peptide: K([AEEA-AEEA-γGlu-C20 diacid])CNTATCATQRLANFLRHSSPNFGAIPSSTNVGRNTY-NH2
modifications: disulfide 2-7; N-terminus assumed
SMILES: CC[C@H](C)[C@H](NC(=O)[C@H](C)NC(=O)CNC(=O)[C@H](Cc1ccccc1)NC(=O)[C@H](CC(N)=O)NC(=O)[C@@H]1CCCN1C(=O)[C@H](CO)NC(=O)[C@H](CO)NC(=O)[C@H](Cc1c[nH]cn1)NC(=O)[C@H](CCCNC(=N)N)NC(=O)[C@H](CC(C)C)NC(=O)[C@H](Cc1ccccc1)NC(=O)[C@H](CC(N)=O)NC(=O)[C@H](C)NC(=O)[C@H](CC(C)C)NC(=O)[C@H](CCCNC(=N)N)NC(=O)[C@H](CCC(N)=O)NC(=O)[C@@H](NC(=O)[C@H](C)NC(=O)[C@@H]1CSSC[C@H](NC(=O)[C@@H](N)CCCCNC(=O)COCCOCCNC(=O)COCCOCCNC(=O)CC[C@H](NC(=O)CCCCCCCCCCCCCCCCCCC(=O)O)C(=O)O)C(=O)N[C@@H](CC(N)=O)C(=O)N[C@@H]([C@@H](C)O)C(=O)N[C@@H](C)C(=O)N[C@@H]([C@@H](C)O)C(=O)N1)[C@@H](C)O)C(=O)N1CCC[C@H]1C(=O)N[C@@H](CO)C(=O)N[C@@H](CO)C(=O)N[C@H](C(=O)N[C@@H](CC(N)=O)C(=O)N[C@H](C(=O)NCC(=O)N[C@@H](CCCNC(=N)N)C(=O)N[C@@H](CC(N)=O)C(=O)N[C@H](C(=O)N[C@@H](Cc1ccc(O)cc1)C(N)=O)[C@@H](C)O)C(C)C)[C@@H](C)O
notes: also called compound 95
For B2, the “Ratio hCT/hAmylin binding” value in assay [1] was 63.4. Moreover, the half-inhibitory concentration (IC50) was found to be 61.3 nM in assay [2] and 0.967 nM in assay [3].

B3: N^ε1-[2-[2-[2-[[2-[2-[2-[[(4S)-4-carboxy-4-(19-carboxynonadecanoylamino)butanoyl]amino]ethoxy]ethoxy]acetyl]amino]ethoxy]ethoxy]acetyl]-[Arg17,Pro21,Pro27,His34 … (peptide)
peptide: K([AEEA-AEEA-γGlu-C20 diacid])CNTATCATQRLANFLRHSSPNFGAIPSSTNVGHNTY-NH2
modifications: disulfide 2-7; N-terminus assumed
SMILES: CC[C@H](C)[C@H](NC(=O)[C@H](C)NC(=O)CNC(=O)[C@H](Cc1ccccc1)NC(=O)[C@H](CC(N)=O)NC(=O)[C@@H]1CCCN1C(=O)[C@H](CO)NC(=O)[C@H](CO)NC(=O)[C@H](Cc1c[nH]cn1)NC(=O)[C@H](CCCNC(=N)N)NC(=O)[C@H](CC(C)C)NC(=O)[C@H](Cc1ccccc1)NC(=O)[C@H](CC(N)=O)NC(=O)[C@H](C)NC(=O)[C@H](CC(C)C)NC(=O)[C@H](CCCNC(=N)N)NC(=O)[C@H](CCC(N)=O)NC(=O)[C@@H](NC(=O)[C@H](C)NC(=O)[C@@H]1CSSC[C@H](NC(=O)[C@@H](N)CCCCNC(=O)COCCOCCNC(=O)COCCOCCNC(=O)CC[C@H](NC(=O)CCCCCCCCCCCCCCCCCCC(=O)O)C(=O)O)C(=O)N[C@@H](CC(N)=O)C(=O)N[C@@H]([C@@H](C)O)C(=O)N[C@@H](C)C(=O)N[C@@H]([C@@H](C)O)C(=O)N1)[C@@H](C)O)C(=O)N1CCC[C@H]1C(=O)N[C@@H](CO)C(=O)N[C@@H](CO)C(=O)N[C@H](C(=O)N[C@@H](CC(N)=O)C(=O)N[C@H](C(=O)NCC(=O)N[C@@H](Cc1c[nH]cn1)C(=O)N[C@@H](CC(N)=O)C(=O)N[C@H](C(=O)N[C@@H](Cc1ccc(O)cc1)C(N)=O)[C@@H](C)O)C(C)C)[C@@H](C)O
notes: also called compound 97
On to B3, for which, in assay [1], the “Ratio hCT/hAmylin binding” value amounted to 104. The concentration for half-maximal inhibition (IC50) in assay [2] came out at 58.9 nM; in assay [3], 0.568 nM.

The IC50 is the concentration at which inhibition is half-maximal.
